The target of the data set is Tet Repressor (TetR) (UniProt P04483 P04483:1-207). Description: EMSA; lacks Tet operator; 500 nM TetR, 50 nM DNA, 300 mM NaCl, pH 7.7. The conditions noted are these: chain copies: 2 (inferred). From the text:
The nucleotide sequence to which the Tet Repressor protein binds, typically consists of several repeats (5 or more) of the Tet Operator (TetO)19 base pair sequence, each followed by a 17 bp spacer. Here, we evaluated the binding of the Tet repressor protein to several Tet Operator sequence-containing variants that included spacer sequences of differing sizes, or no spacer sequences. Specifically, we investigated […] To test the binding capacity of the Tet Operator sequence-containing variants experimentally, 500 nM of recombinant TetR protein (Imgen BioSciences, Inc.; Cat. No. P-1002-0.5 mg) was incubated with 50 nM of template DNA in binding buffer (50 mM HEPES, 20% glycerol, 300 mM NaCl, pH 7.7) and protein binding to the Tet Operator sequence-containing variants was analyzed using an electrophoretic mobility shift assay using a 10% polyacrylamide gel (FIG. 8B).
A general note: Mobility shift assays separate free from complexed probe on a gel.

The record followed here is US12201699, “Compositions and methods for promoting homology directed repair” (Editas Medicine, Inc.).

Sequence of Tet Repressor (TetR) (P04483 whole entry, one chain of several): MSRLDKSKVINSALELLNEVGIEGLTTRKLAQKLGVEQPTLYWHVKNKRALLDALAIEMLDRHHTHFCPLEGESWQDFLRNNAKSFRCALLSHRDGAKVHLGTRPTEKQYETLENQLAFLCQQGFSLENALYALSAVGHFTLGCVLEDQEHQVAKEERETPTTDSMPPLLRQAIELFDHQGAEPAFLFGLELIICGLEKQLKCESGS

B1: ssODN-109 (control) (ssDNA)
DNA: AACAGACACCATGGTGCATCTGACTCGTGTGGAGAAGTCGGCCGTTACTGCCCTGCAGGGCAAGCTTAACGTGGATGAAGTTCGTGGTGAGGCCCTGGGCAGGTTGGTA
Take B1: the binding result was “no binding”.

B2: ssODN-179 (control) (ssDNA)
DNA: TGCTTCTGACACAACTGTGTTCACTAGCAACCTCAAACAGACACCATGGTGCATCTGACTCGTGTGGAGAAGTCGGCCGTTACTGCCCTGCAGGGCAAGCTTAACGTGGATGAAGTTCGTGGTGAGGCCCTGGGCAGGTTGGTATCAAGGTTACAAGACAGGTTTAAGGAGACCAATAG
For the molecule B2, the binding result was “no binding”.
